± gives the half width of the 95% confidence interval.
Legend:
[1] = folding stability dG unfold from trypsin proteolysis; higher = more stable
In short: (§1)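 Unfolding free energy was derived, per protease or combined, by relating Bayesian-fitted K50 values from sequencing counts to a sequence-predicted unfolded-state K50 and a shared folded-state K50. The underlying digests exposed cysteine-free mini-proteins under 80 residues, in a PA-tagged cDNA display construct, to trypsin and chymotrypsin at 11 threefold-diluted concentrations and to a no-protease condition. A filter kept only designs with AlphaFold2 dimer inter-PAE above 15.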

[2] = folding stability dG unfold from chymotrypsin proteolysis; higher = more stable
In short: as §1

[3] = folding stability dG unfold (combined trypsin and chymotrypsin); higher = more stable
In short: as §1

Row | Sequence | folding stability dG unfold [1] [kcal/mol] | folding stability dG unfold [2] [kcal/mol] | folding stability dG unfold [3] [kcal/mol]
1 | SAGGGPAPVVVTVEYDPETREQRVTARAGGGGVVFELSLPLGDKTVTVKVIPVGDKVLLEVEWEVKGSAGGS [r16_631_TrMRF] | 2.95 ± 0.16 | 3.06 ± 0.13 | 2.91 ± 0.15
2 | SAGGGPDLPGEVEVEVEITRVEFDPETGELRVEAEATFPDGLVAKVKITFPEPGDLDKFEVEVEVEPASAGG [r13_894_TrMRF] | 1.5 ± 0.052 | 1.68 ± 0.071 | 1.59 ± 0.035
3 | SAGGGPMPIDVEVLEVTPDSVRIRYPETGAVFTFDPNKEHEFTLPDGSRITVTFKPDGSVSATVTVPGSAGG [r13_352_JUSTAS] | 4.35 ± 0.3 | 4.13 ± 0.13 | 4.16 ± 0.14
4 | SAGGGPMPVEKEVEITLEVDPSDPASVRARLEALAASRGVEEITEITEETLPDGSRRVTAKVKWLLPVSAGG [r13_222_JUSTAS] | 1.15 ± 0.067 | 0.397 ± 0.15 | 0.875 ± 0.087
5 | SAGGGPNTYVKVTLPLPPNKADVVEEIAKLFPNVKVEVTTTPENGTLPVTFYFPSPDGSPDAKVSIFSAGGS [r8_267_TrMRF] | 0.407 ± 0.15 | 1.11 ± 0.31 | 0.754 ± 0.15
6 | SAGGGQPVKITEIENIDPNNGKITFEIVDPDDGRPLKIKIPVQRRPNGKPYLQIEIEVDGKKWEIMFMSAGG [r13_993_TrROS] | 1.7 ± 0.17 | 1.67 ± 0.16 | 1.87 ± 0.15
7 | SAGGGRTITVTARFTDPATGTTTTETITIDVPSDTSEEEKKEIAEKTVKEIAEKNGVKSEIESISITSAGGS [r8_312_JUSTAS] | 4.24 ± 0.29 | 2.3 ± 0.17 | 4.32 ± 0.7
8 | SAGGGSMVFVEFPQGGKTVRVDVDLEKGVLRVRFPGEGAVLEYPVRDPEAVVRELTPADVPVRAYPESAGGS [r8_95_JUSTAS] | 0.346 ± 0.078 | 0.405 ± 0.11 | 0.439 ± 0.072
9 | SAGGGSRTLTRGDKTYVFTTAPPPTGGRYVTLTVVDPATGAPAPVYTMDVTDGTDEEALARLLAAPLSAGGS [r16_378_JUSTAS] | -0.038 ± 0.11 | 0.847 ± 0.091 | 0.581 ± 0.038
10 | SAGGGSSMPVPVRVAEFNVPDSRPEELIERAKELLEADEIDVLVVPSPAAQEALKAAFPDFPVPVLVRSAGG [r13_353_JUSTAS] | -0.646 ± 0.085 | -0.339 ± 0.17 | -0.459 ± 0.11
11 | SAGGGSVPAEHLVSVSYEKPPWSDEPVITVTALKGGKPVTFTIPSSLSEEEALEAVEKAIAAGPFALGSAGG [r13_225_JUSTAS] | 0.638 ± 0.055 | 0.579 ± 0.13 | 0.675 ± 0.099
12 | SAGGGSVSTSVTPDPATGLVTVTVTLTRTTPTPSPGTTTTTTTITVTVQVPPSYQPTATITVSVPASLSAGG [r13_450_JUSTAS] | 3.49 ± 0.16 | 3.91 ± 0.12 | 3.72 ± 0.082
13 | SAGGGTATVTTAEAELPGDVRVTTATVTLPDGSAVRVVTLSSSVPNATATVVVPLPANGPGEGVIVLPSAGG [r13_323_TrMRF] | 1.44 ± 0.073 | 0.785 ± 0.056 | 1.15 ± 0.069
14 | SAGGGTEIEYNPETGEIIVKVNPLIPYPFEPGSETIPLPFEGDPEAAEQEIRDLIEEHPDASFDIKPSSAGG [r13_284_TrMRF] | 0.638 ± 0.085 | -1.32 ± 0.17 | 0.0628 ± 0.061
15 | SAGGGTYYLIFKITETKTDPKTGKTTTSEKVIVDPLENPGSISAEEIAKLKEELEPKGYTVEIEIKPKSAGG [r13_926_JUSTAS] | 0.654 ± 0.045 | 1.41 ± 0.27 | 1.07 ± 0.23
16 | SAGGGVEITREPDPAGGRRVRFTDPSGRTFEVEITPDSLRITRPDGTTRSAAVPPDADLRLPYSELASAGGS [r16_203_JUSTAS] | -0.625 ± 0.12 | 0.418 ± 0.041 | 0.134 ± 0.057
17 | SAGGGVKFELVDIESDGDGKYIAKIKVYNENGELIEEIEIEVKGLKNVTLTIPLINKPKKIEIKVTPESAGG [r13_427_TrMRF] | 0.752 ± 0.03 | 1.51 ± 0.093 | 1.21 ± 0.12
18 | SAGGGVMIAIKKIDPKNGKLEIEIWMPEGFEDPDQRKEMLEMADSLADRLQELHGIPVKVTIHPFPNSAGGS [r16_304_TrROS] | 2.31 ± 0.083 | 2.27 ± 0.076 | 2.31 ± 0.12

From the supplement of paper PMC12764529
